Kd data for 2 molecules are collected here from publication PMC8136791, “In vivo targets of Salmonella FinO include a FinP-like small RNA controlling copy number of a cohabitating plasmid”.

This series addresses FinO (Salmonella enterica SL1344 (virulence …, UniProt A0A0H3P176 1-187)). The series is described as follows: EMSA; yeast RNA 1 ug/reaction; apparent Kd; 25 mM Tris-HCl pH 7.4, 150 mM NaCl, 1 mM MgCl2, 1 ug yeast RNA/reaction, 4 nM labeled RNA, 37 C, 1 h (EMSA) or 30 min (filter binding). Conditions: protein: recombinant, tags: His6-3C (expression plasmid pMiG007-His6-3C-FinO), label: 32P (5' end; 3' pCp alternative for probing). For orientation: A gel shift assay detects complexes by their altered migration in electrophoresis.

B1: FinP (structured_RNA)
RNA: GGGACACAUAGGAACCUCCUCAAAGGAUUCUAUGGACAGUCGAUGCAGGGAGUGACAGCUCCCUGUAUCGGCGAUUUU
As for B1, the Kd (two stem-loops (SLI, SLII) with 3' U tail) was around 500 nM.

B2: RepX (structured_RNA)
RNA: GGGCAUUGAUUGCCUCCUUUGCAGGCAGUUGGUGGUUAGGCGCUGGCGGGGUCACUACCCCCGCCCUGCGCCGCUCU
Turning to B2, for the setting “FinP-like stem-loops, short 3' tail”, the Kd is around 500 nM.
